Columns and labels:
[1] = target: T1, cell surface mesothelin on human cancer cell lines NCI-H226, OVCAR3, NCI-N87 and AsPC-1 (human, UniProt Q13421 296-598); assay: flow cytometry on AsPC-1 cells; Alexa Fluor 488 anti-human IgG secondary antibody
T1 construct: whole, on cells
Procedure: (§1) After washing, cells were incubated with Alexa Fluor 488 conjugated secondary antibody (anti-human IgG, Life Technologies) for 20 minutes at 4C. Cells were washed and then fluorescence intensity of the cells was quantified by flow cytometry.

[2] = target: T1, cell surface mesothelin on human cancer …; assay: flow cytometry on NCI-N87 cells; Alexa Fluor 488 anti-human IgG secondary antibody
Procedure: as §1

[3] = target: T1, cell surface mesothelin on human cancer …; assay: flow cytometry on NCI-H226 cells; Alexa Fluor 488 anti-human IgG secondary antibody
Procedure: as §1

T1 sequence (Q13421 other isoform, or with tags, fused parts or gaps limits assumed): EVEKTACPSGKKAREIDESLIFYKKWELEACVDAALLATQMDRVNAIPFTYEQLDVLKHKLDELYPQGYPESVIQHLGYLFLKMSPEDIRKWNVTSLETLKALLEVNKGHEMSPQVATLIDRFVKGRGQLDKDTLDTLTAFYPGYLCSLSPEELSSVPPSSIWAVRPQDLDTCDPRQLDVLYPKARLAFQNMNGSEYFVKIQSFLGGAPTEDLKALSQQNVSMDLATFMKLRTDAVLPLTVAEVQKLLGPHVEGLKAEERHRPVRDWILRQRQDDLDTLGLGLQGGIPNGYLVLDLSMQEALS

| EC50 (read off the curve) [1] | EC50 (read off the curve) [2] | EC50 (read off the curve) [3] | Binder |
| --- | --- | --- | --- |
| ~6 ng/mL | ~4 ng/mL | ~10 ng/mL | R3C7 (original llama VHH, Anti-MSLN-6) as human IgG1 Fc fusion (Fc fusion, also called R3-E08(C7); not shown: human IgG1 Fc (hIgG1 Fc)) QVQLVESGGGLVEAGDSLRLSCVVSGRTLESYVMAWFRQAPGKEREAVASINWSSGRLIYADFVKGRFTISRDYEKNTIYLSMNNLKPEDTAVYYCAAGRYWGQGTQVTVSS |
| ~7 ng/mL | ~5 ng/mL | ~10 ng/mL | R2G12 (original llama VHH, Anti-MSLN-9) as human IgG1 Fc fusion (Fc fusion, also called R2-G06(G12); not shown: human IgG1 Fc (hIgG1 Fc)) QVQLVESGGGLVQAGGSLRLSCAASGITFPVNAYGWYRQAPGKQRDLVAIISAGGTTNYADSVKGRFAISKDNVNNTVYLQMNSLTSEDTGVYYCYLQRRIGMLRDYWGQGTQVTVSS |
